Assays:
plasmin = target: T1, plasmin (Homo sapiens, UniProt P00747); assay: Serine protease inhibition test, plasmin (chromogenic substrate); assay type: biochemical; settings: recombinant protein 1, 100, 200 nM; protease 100 pM; 6 h at 37° C.
T1 construct: Serine protease (100 pM; thrombin, plasmin, trypsin or factor Xa) was incubated with recombinant protein
Description: (A) Inhibition of serine proteases through recombinant protein. Serine protease (100 pM; thrombin, plasmin, trypsin or factor Xa) was incubated with recombinant protein (1, 100 and 200 nM) in phosphate buffer 50 mM containing NaCl 150 mM and 0.1% of PEG 6000, pH 7.4 for 6 h at 37° C. Following addition of chromogenic substrate corresponding to reaction mixture, hydrolysis thereof was monitored at 405 nm. For factor Xa activity, buffer contained phosphatidylserine and phosphatidylcholine 50 μM. […] (B) Typical curves for hydrolysis of chromogenic substrate S-2238 (15 μM) by thrombin 0.1 nM in absence (trace a) or presence of recombinant protein (trace b, 15 pM; trace c, 30 pM; trace d, 60 pM and trace e, 100 pM) in phosphate buffer 50 mM containing NaCl 150 mM and 0.1% of PEG 6000, pH 7.4 at 37° C. (C) Residual activity of thrombin in presence of increasing concentration of recombinant protein. (D) Dose-response curves for thrombin inhibition by recombinant protein. Percentage of thrombin inhibition was plotted versus the concentration record of recombinant protein. Experimental condition of (C) and (D) is the same as in (B).
The first performed experiment was the test of serine proteases inhibition through recombinant protein. […] Hydrolysis of a chromogenic substrate through serine proteases in the presence and absence of recombinant protein was monitored in a spectrophotometer way. […]

factor Xa = target: T2, factor Xa (Homo sapiens, UniProt P00742); assay: Degradation of recombinant protein by factor Xa (SDS-PAGE and residual thrombin inhibition); assay type: in vitro ADME; settings: for thrombin inhibition after incubation: diluted to 100 pM
T2 construct: Serine protease (100 pM; thrombin, plasmin, trypsin or factor Xa) was incubated with recombinant protein; For factor Xa activity, buffer contained phosphatidylserine and phosphatidylcholine 50 μM
Description: (§1) Recombinant protein (10 μM) was incubated with or without serine protease 1 μM (thrombin, plasmin, trypsin or factor Xa) in phosphate buffer 50 mM containing NaCl 150 mM and 0.1% of PEG 6000, pH 7.4 for 4, 6, 7 or 18 h at 37° C. Reaction mixtures (20 μl) were split by SDS-PAGE. (A) hydrolysis SDS-PAGE (15%) of recombinant protein by serine proteases following 6 h of incubation. (B) Percentage of thrombin inhibition by recombinant protein following 6 h of incubation with serine protease (see experimental procedures). (C) hydrolysis SDS-PAGE (15%) of recombinant protein by serine proteases following 18 h of incubation. (D) Percentage of thrombin inhibition by recombinant protein following 18 h of incubation with serine protease (see experimental procedures). Numbering of (B) and (D) corresponds to numbering of (A) and (C), respectively, and recombinant protein control is represented by CTRL. Recombinant protein (strip 1); thrombin (strip 2) and thrombin with recombinant protein (strip 3); plasmin (strip 4) and plasmin with recombinant protein (strip 5); trypsin (strip 6) and trypsin with recombinant protein (strip 7); factor Xa (strip 8) and factor Xa with recombinant protein (strip 9) and protein marker (strip 10; in A). (E) Identification of cleavage sites of thrombin in recombinant protein following 7 h of incubation. (F) Identification of cleavage sites of factor Xa in recombinant protein following 4 h of incubation. Cleavage sites of thrombin and factor Xa in recombinant protein sequence are shown in FIGS. S1 and S2, respectively. Experimental procedure for (C), (D), (E) and (F) was the same as for (A) and (B), except the incubation time and the type of serine protease used. FIG. 5 discloses “GKPQG” as SEQ ID NO: 18, “MPKGG” as SEQ ID NO: 19, and “SDAVH” as SEQ ID NO: 20.
Afterwards, it was determined whether serine proteases, like thrombin, plasmin, factor Xa and trypsin, hydrolyze recombinant protein. For this purpose, recombinant protein (10 μM) was incubated with or without serine protease 1 μM (thrombin, plasmin, trypsin or factor Xa) in phosphate buffer 50 mM containing NaCl 150 mM and 0.1% of PEG, pH 7.4 for 6 h or 18 h at 37° C. SDS-PAGE of reaction mixture following 6 h of incubation presented that, compared to control strip of recombinant protein, strip intensity of 20-kDa (corresponding to non-digested recombinant protein) decreased and strips of lower molecular weight appeared in recombinant protein incubated by thrombin (FIG. 5A). […] Upon addition of chromogenic substrate S-2238, the hydrolysis thereof by thrombin was monitored in spectrophotometer way. […]

isolated human plasma = assay: Activated partial thromboplastin time (aPTT) in isolated human plasma; assay type: biochemical; settings: plasma of healthy human volunteers, incubation 3 min. at 37° C.
Description: Plasma was obtained from blood of healthy human volunteer and incubated with different concentrations of recombinant protein. APTT, PT and TT were determined like experimental procedure. (A) Activated partial thromboplastin time (B) prothrombin time and (C) thrombin time. Ctrl is related to plasma and Sal is related to plasma plus saline.
Finally, PT, aPTT and TT were assessed in isolated plasma of healthy human volunteers following incubation with recombinant protein for 3 min. at 37° C. […] Maximum test reading for aPTT was achieved following 12 nM, while for PT that was achieved following 6 nM of recombinant protein (FIGS. 11A and 11B).

[1] = Half-life in plasma ex vivo and in phosphate buffer containing thrombin; assay type: in vitro ADME; settings: plasma ex vivo and phosphate buffer 50 mM with 1 μM thrombin, recombinant protein 10 μM, pH 7.4, 37° C.
thrombin = thrombin (Homo sapiens, UniProt P00734); assay: Degradation of recombinant protein by thrombin (SDS-PAGE and residual thrombin inhibition); assay type: in vitro ADME; parameters: Brown and cyan colors represent heavy and light chain of thrombin respectively
Description: as §1
Afterwards, it was determined whether serine proteases, like thrombin, plasmin, factor Xa and trypsin, hydrolyze recombinant protein. […] Upon addition of chromogenic substrate S-2238, the hydrolysis thereof by thrombin was monitored in spectrophotometer way. […]

T2 sequence (P00742 235-488 limits assumed): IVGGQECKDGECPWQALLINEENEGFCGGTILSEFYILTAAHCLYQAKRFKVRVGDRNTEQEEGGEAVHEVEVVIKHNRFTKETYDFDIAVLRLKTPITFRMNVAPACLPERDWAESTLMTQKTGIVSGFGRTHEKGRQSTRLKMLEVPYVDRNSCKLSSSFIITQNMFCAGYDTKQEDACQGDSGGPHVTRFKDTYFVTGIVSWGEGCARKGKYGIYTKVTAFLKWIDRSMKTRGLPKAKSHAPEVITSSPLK
T2 sequence (P00742 41-179 limits assumed): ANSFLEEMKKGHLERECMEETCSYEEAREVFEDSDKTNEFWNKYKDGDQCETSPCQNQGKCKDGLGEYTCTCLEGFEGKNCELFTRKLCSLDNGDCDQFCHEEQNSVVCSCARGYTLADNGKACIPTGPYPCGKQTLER
T1 sequence (P00747 581-810 limits assumed, species assumed): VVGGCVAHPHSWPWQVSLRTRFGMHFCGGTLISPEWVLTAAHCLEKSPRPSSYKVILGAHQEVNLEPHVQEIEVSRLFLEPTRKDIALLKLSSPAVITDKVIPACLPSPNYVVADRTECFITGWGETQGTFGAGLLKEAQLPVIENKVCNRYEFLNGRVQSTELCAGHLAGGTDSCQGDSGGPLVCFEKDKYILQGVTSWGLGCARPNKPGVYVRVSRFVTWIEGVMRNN
T1 sequence (P00747 97-580 limits assumed, species assumed): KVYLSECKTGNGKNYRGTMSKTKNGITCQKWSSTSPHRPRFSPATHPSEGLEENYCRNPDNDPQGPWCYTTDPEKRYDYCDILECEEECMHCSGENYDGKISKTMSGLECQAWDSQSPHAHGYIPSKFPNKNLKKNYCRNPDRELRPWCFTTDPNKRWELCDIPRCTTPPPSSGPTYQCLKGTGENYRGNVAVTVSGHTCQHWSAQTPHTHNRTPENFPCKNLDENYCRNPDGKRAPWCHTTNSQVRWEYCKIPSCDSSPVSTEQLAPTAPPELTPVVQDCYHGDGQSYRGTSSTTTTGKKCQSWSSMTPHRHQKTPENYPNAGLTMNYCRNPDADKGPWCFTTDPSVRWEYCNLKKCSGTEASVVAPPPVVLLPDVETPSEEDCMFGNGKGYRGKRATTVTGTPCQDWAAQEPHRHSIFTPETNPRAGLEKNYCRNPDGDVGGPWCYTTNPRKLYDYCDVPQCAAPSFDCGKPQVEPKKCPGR

B1: GKPQGHPHDALEARSDAVHTAVPKMPKGGHGGFEPIPIDYDERALEARSDAVHTAVPKMPKGGLGGFEPIPIDYDERALEARSDAVHTAVPKMPKGGHGGFEPIPIDYDERALEARSDAVHTAVPKMPKGGHGGFEPIPIDYDERALHALEHHHHHH (protein)
chain: GKPQGHPHDALEARSDAVHTAVPKMPKGGHGGFEPIPIDYDERALEARSDAVHTAVPKMPKGGLGGFEPIPIDYDERALEARSDAVHTAVPKMPKGGHGGFEPIPIDYDERALEARSDAVHTAVPKMPKGGHGGFEPIPIDYDERALHALEHHHHHH
modifications: Sculptin recombinat protein
notes: recombinant His-tagged protein modified from tick sculptin, expressed in E. coli
- inhibition of plasmin (plasmin): did not inhibit
- SDS-PAGE, hydrolysis of recombinant protein (factor Xa; 10 μM protein with 1 μM factor Xa, 6 h at 37° C.): converted the recombinant protein in fragments
- SDS-PAGE strip of 20-kDa (recombinant protein monomer) (factor Xa; 10 μM protein with 1 μM factor Xa, 18 h at 37° C.): completely disappeared
- thrombin inhibition after incubation (factor Xa; after 6 h digestion with factor Xa, thrombin 100 pM): retained its thrombin inhibition activity
- thrombin inhibition after incubation (factor Xa; after 18 h incubation with factor Xa): even inhibited the thrombin activity
- aPTT (isolated human plasma): prolonged by recombinant protein in concentration-dependent way
- concentration at which maximum test reading for aPTT was achieved (isolated human plasma): 12 nM
- Half-life [1]: 8 h
- SDS-PAGE strip intensity of 20-kDa (non-digested recombinant protein) (thrombin; 10 μM protein with 1 μM thrombin, 6 h at 37° C.): decreased
- SDS-PAGE strip of 20-kDa (recombinant protein monomer) (thrombin; 10 μM protein with 1 μM thrombin, 18 h at 37° C.): completely disappeared
- thrombin inhibition after incubation (thrombin; after 18 h incubation with thrombin, diluted to 100 pM): did not inhibit thrombin

Source: US12187785B2, “Recombinant protein and fragments thereof, method for producing said recombinant protein, synthetic gene and use of sculptin or recombinant protein for preparing a medicament or pharmaceutical composition for the prophylaxis and/or treatment of thromboembolic diseases or as a direct and specific …” (priority 2017, dated 2025)
